Substitutions are numbered along the chain they refer to. Numbers in names are those of the source. Where “and” joins values, the source holds several entries; their conditions need not be identical. Equal values may be shown once.
B1: parental mouse (KB001) Fab FASEBA, VL variant T100V (Fab, V domains shown)
VH: EVQLKQSGPGLVAPSQSLSITCTVSGFSLSIYSVHWVRQPPGKGLEWLGMIWGGGSSDYNSALKSRLSISKDNSKSQVFLKMNSLQTDDTAMYYCARNGNFYAMDYWGQGTSVTVSS
VL: QIVLTQSPAIMSASLGERVTMTCTASSSVSSSFLHWYQQKPGSSPQLWIYSTSNLASGVPARFSGSGSGTSYSLTISSMEAEDAATYYCHQYHHSPYIYVFGGGTKLEIK
B2: parental mouse (KB001) Fab FASEBA, VL variant Y97I (Fab, V domains shown)
VH: B1 VH
VL: B1 VL with Y97I, V100T
B3: parental mouse (KB001) Fab FASEBA, VL variant I98V (Fab, V domains shown)
VH: B1 VH
VL: B1 VL with I98V, V100T
B4: parental mouse (KB001) Fab FASEBA, VL variant H94F (Fab, V domains shown)
VH: B1 VH
VL: B1 VL with H94F, V100T
B5: parental mouse (KB001) Fab FASEBA, VL variant S95Q (Fab, V domains shown)
VH: B1 VH
VL: B1 VL with S95Q, V100T
B6: parental mouse (KB001) Fab FASEBA, VL variant T100I (Fab, V domains shown)
VH: B1 VH
VL: B1 VL with V100I
B7: parental mouse (KB001) Fab FASEBA, VL variant S95A (Fab, V domains shown)
VH: B1 VH
VL: B1 VL with S95A, V100T
B8: parental mouse (KB001) Fab FASEBA, VL variant H93N (Fab, V domains shown)
VH: B1 VH
VL: B1 VL with H93N, V100T
B9: parental mouse (KB001) Fab FASEBA, VL variant S95Y (Fab, V domains shown)
VH: B1 VH
VL: B1 VL with S95Y, V100T
B10: parental mouse (KB001) Fab FASEBA, VL variant Y97V (Fab, V domains shown)
VH: B1 VH
VL: B1 VL with Y97V, V100T
B11: parental mouse (KB001) Fab FASEBA, VL variant S95I (Fab, V domains shown)
VH: B1 VH
VL: B1 VL with S95I, V100T
B12: KB001 parental mouse Fab VH variant K64E (Fab, V domains shown)
VH: B1 VH with K64E
VL: B1 VL with V100T
B13: parental mouse (KB001) Fab FASEBA, VL variant T100P (Fab, V domains shown)
VH: B1 VH
VL: B1 VL with V100P
B14: parental mouse (KB001) Fab FASEBA, VL variant S95T (Fab, V domains shown)
VH: B1 VH
VL: B1 VL with S95T, V100T
B15: parental mouse (KB001) Fab FASEBA (Fab, V domains shown)
VH: B1 VH
VL: B1 VL with V100T
B16: parental mouse (KB001) Fab FASEBA, VL variant S95N (Fab, V domains shown)
VH: B1 VH
VL: B1 VL with S95N, V100T
B17: KB001 parental mouse Fab VH variant K64G (Fab, V domains shown)
VH: B1 VH with K64G
VL: B1 VL with V100T
B18: KB001 parental mouse Fab VH variant K64H (Fab, V domains shown)
VH: B1 VH with K64H
VL: B1 VL with V100T
B19: KB001 parental mouse Fab VH variant S65H (Fab, V domains shown)
VH: B1 VH with S65H
VL: B1 VL with V100T
B20: parental mouse (KB001) Fab FASEBA, VL variant Y97R (Fab, V domains shown)
VH: B1 VH
VL: B1 VL with Y97R, V100T
B21: parental mouse (KB001) Fab FASEBA, VL variant S95E (Fab, V domains shown)
VH: B1 VH
VL: B1 VL with S95E, V100T

Assays:
[1] = molecular target: HRgpA-6H (Porphyromonas gingivalis) (UniProt P28784); experiment: ELISA, Fab FASEBA supernatant on coated HRgpA-6H
[2] = molecular target: HRgpA-6H (Porphyromonas gingivalis) (UniProt P28784); experiment: ELISA, Fab FASEBA supernatant on coated HRgpA-6H (0.0625 ug/ml)

| Binder | OD450nm [1] | Ratio OD(Variant)/OD(WT) [1] | OD450nm [2] | Ratio OD(Variant)/OD(WT) [2] |
| --- | --- | --- | --- | --- |
| B1 | 0.461 OD450nm and 0.428 OD450nm | 0.881 ratio to WT and 0.818 ratio to WT |  |  |
| B2 | 0.667 OD450nm | 0.845 ratio to WT |  |  |
| B3 | 0.832 OD450nm and 0.838 OD450nm and 0.787 OD450nm | 0.951 ratio to WT and 0.958 ratio to WT and 0.899 ratio to WT |  |  |
| B4 | 0.77 OD450nm | 0.838 ratio to WT |  |  |
| B5 | 0.893 OD450nm | 0.972 ratio to WT |  |  |
| B6 | 0.493 OD450nm | 0.942 ratio to WT |  |  |
| B7 | 0.83 OD450nm and 0.872 OD450nm | 0.904 ratio to WT and 0.949 ratio to WT |  |  |
| B8 | 0.857 OD450nm | 0.91 ratio to WT |  |  |
| B9 | 0.827 OD450nm | 0.9 ratio to WT |  |  |
| B10 | 0.662 OD450nm | 0.839 ratio to WT |  |  |
| B11 | 0.846 OD450nm and 0.817 OD450nm and 0.791 OD450nm | 0.921 ratio to WT and 0.889 ratio to WT and 0.861 ratio to WT |  |  |
| B12 |  |  | 0.789 | 0.954 |
| B13 | 0.46 OD450nm | 0.879 ratio to WT |  |  |
| B14 | 0.871 OD450nm | 0.948 ratio to WT |  |  |
| B15 | 0.9 OD450nm and 0.889 OD450nm | 0.98 ratio to WT and 0.968 ratio to WT |  |  |
| B16 | 0.863 OD450nm and 0.884 OD450nm | 0.94 ratio to WT and 0.962 ratio to WT |  |  |
| B17 |  |  | 0.811 | 0.981 |
| B18 |  |  | 0.788 and 0.806 and 0.73 | 0.953 and 0.975 and 0.883 |
| B19 |  |  | 0.823 and 0.767 | 0.995 and 0.927 |
| B20 | 0.769 OD450nm | 0.975 ratio to WT |  |  |
| B21 | 0.855 OD450nm and 0.82 OD450nm | 0.931 ratio to WT and 0.893 ratio to WT |  |  |

Source: patent publication US20230365662A1
